# Laboratory results published in US20220064329A1 (Novo Nordisk, published 2022).
# T1: recombinant human activated Factor VII (FVIIa) (human, UniProt P08709 61-212; P08709 213-466, ten glutamate residues of the Gla domain may be gamma-carboxylated)
# T1 construct: chains tethered by a disulfide bond; also called Factor VIIa; rFVIIa
# T1 sequence 1: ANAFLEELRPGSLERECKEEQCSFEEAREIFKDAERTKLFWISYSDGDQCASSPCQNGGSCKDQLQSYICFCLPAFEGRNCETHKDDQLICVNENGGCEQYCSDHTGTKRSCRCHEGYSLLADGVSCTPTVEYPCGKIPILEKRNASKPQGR
# T1 sequence 2: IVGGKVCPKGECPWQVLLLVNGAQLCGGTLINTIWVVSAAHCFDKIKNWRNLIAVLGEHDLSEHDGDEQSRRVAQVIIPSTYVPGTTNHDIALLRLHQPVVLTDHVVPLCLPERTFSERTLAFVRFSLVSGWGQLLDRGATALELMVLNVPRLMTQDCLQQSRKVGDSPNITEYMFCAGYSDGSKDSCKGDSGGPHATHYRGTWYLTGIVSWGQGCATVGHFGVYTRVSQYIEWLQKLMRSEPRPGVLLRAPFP
# Target: T1, recombinant human activated Factor VII …
# Assay: BLI (Fortebio)
row,Kd [nM],Binder
1,1.1,"VH SEQ ID NO 618 / VL SEQ ID NO 318 (antibody, IgG4, V domains shown, humanized 11F2; IgG4 S228P/kappa) VH: QVQLQESGPGLVKPSQTLSLTCTVSGYSISSDSAWSWIRQFPGKGLEWIGYIQYSGSTNYNPSLKSRVTISRDTSKNQFSLKLSSVTAADTAVYYCARSVNYYGNSFAVGPWGQGTLVTVSS VL: EIVLTQSPATLSLSPGERATLSCRASQGISDYLHWYQQKPGEAPRLLIKYTSQPATGIPARFSGSGSGTDFTLTISSLEPEDFAVYYCQNGHSFPLTFGQGTKLEIK"
2,200,"VH SEQ ID NO 618 / VL SEQ ID NO 446 (antibody, IgG4, V domains shown, humanized 11F2; IgG4 S228P/kappa) VH: QVQLQESGPGLVKPSQTLSLTCTVSGYSISSDSAWSWIRQFPGKGLEWIGYIQYSGSTNYNPSLKSRVTISRDTSKNQFSLKLSSVTAADTAVYYCARSVNYYGNSFAVGPWGQGTLVTVSS VL: EIVLTQSPATLSLSPGERATLSCRASQGVSDYLAWYQQKPGQAPRLLIKYTSQPATGIPARFSGSGSGTDFTLTISSLEPEDFAVYYCQNGHSFPLTFGQGTKLEIK"
3,21,"VH SEQ ID NO 618 / VL SEQ ID NO 366 (antibody, IgG4, V domains shown, humanized 11F2; IgG4 S228P/kappa) VH: QVQLQESGPGLVKPSQTLSLTCTVSGYSISSDSAWSWIRQFPGKGLEWIGYIQYSGSTNYNPSLKSRVTISRDTSKNQFSLKLSSVTAADTAVYYCARSVNYYGNSFAVGPWGQGTLVTVSS VL: EIVLTQSPATLSLSPGERATLSCRASQGLSDYLAWYQQKPGEAPRLLIKYASQPATGIPARFSGSGSGTDFTLTISSLEPEDFAVYYCQNGHSFPLTFGQGTKLEIK"
4,1,"VH SEQ ID NO 618 / VL SEQ ID NO 350 (antibody, IgG4, V domains shown, humanized 11F2; IgG4 S228P/kappa) VH: QVQLQESGPGLVKPSQTLSLTCTVSGYSISSDSAWSWIRQFPGKGLEWIGYIQYSGSTNYNPSLKSRVTISRDTSKNQFSLKLSSVTAADTAVYYCARSVNYYGNSFAVGPWGQGTLVTVSS VL: EIVLTQSPATLSLSPGERATLSCRASQGISDYLHWYQQKPGQAPRLLIKYTSQPATGIPARFSGSGSGTDFTLTISSLEPEDFAVYYCQNGHSFPLTFGAGTKLELK"
5,1.4,"VH SEQ ID NO 618 / VL SEQ ID NO 462 (antibody, IgG4, V domains shown, humanized 11F2; IgG4 S228P/kappa) VH: QVQLQESGPGLVKPSQTLSLTCTVSGYSISSDSAWSWIRQFPGKGLEWIGYIQYSGSTNYNPSLKSRVTISRDTSKNQFSLKLSSVTAADTAVYYCARSVNYYGNSFAVGPWGQGTLVTVSS VL: EIVLTQSPATLSLSPGERATLSCRASQGVSDYLHWYQQKPGQAPRLLIKYASQPATGIPARFSGSGSGTDFTLTISSLEPEDFAVYYCQNGHSFPLTFGAGTKLEIK"
6,1.1,"VH SEQ ID NO 618 / VL SEQ ID NO 326 (antibody, IgG4, V domains shown, humanized 11F2; IgG4 S228P/kappa) VH: QVQLQESGPGLVKPSQTLSLTCTVSGYSISSDSAWSWIRQFPGKGLEWIGYIQYSGSTNYNPSLKSRVTISRDTSKNQFSLKLSSVTAADTAVYYCARSVNYYGNSFAVGPWGQGTLVTVSS VL: EIVLTQSPATLSLSPGERATLSCRASQGISDYLHWYQQKPGEAPRLLIKYTSQPATGIPARFSGSGSGTDFTLTISSLEPEDFGVYYCQNGHSFPLTFGAGTKLELK"
7,1.1,"VH SEQ ID NO 618 / VL SEQ ID NO 382 (antibody, IgG4, V domains shown, humanized 11F2; IgG4 S228P/kappa) VH: QVQLQESGPGLVKPSQTLSLTCTVSGYSISSDSAWSWIRQFPGKGLEWIGYIQYSGSTNYNPSLKSRVTISRDTSKNQFSLKLSSVTAADTAVYYCARSVNYYGNSFAVGPWGQGTLVTVSS VL: EIVLTQSPATLSLSPGERATLSCRASQGLSDYLHWYQQKPGEAPRLLIKYASQPATGIPARFSGSGSGTDFTLTISSLEPEDFAVYYCQNGHSFPLTFGQGTKLEIK"
8,0.95,"VH SEQ ID NO 618 / VL SEQ ID NO 358 (antibody, IgG4, V domains shown, humanized 11F2; IgG4 S228P/kappa) VH: QVQLQESGPGLVKPSQTLSLTCTVSGYSISSDSAWSWIRQFPGKGLEWIGYIQYSGSTNYNPSLKSRVTISRDTSKNQFSLKLSSVTAADTAVYYCARSVNYYGNSFAVGPWGQGTLVTVSS VL: EIVLTQSPATLSLSPGERATLSCRASQGISDYLHWYQQKPGQAPRLLIKYTSQPATGIPARFSGSGSGTDFTLTISSLEPEDFAVYYCQNGHSFPLTFGQGTKLEIK"
9,24,"VH SEQ ID NO 618 / VL SEQ ID NO 406 (antibody, IgG4, V domains shown, humanized 11F2; IgG4 S228P/kappa) VH: QVQLQESGPGLVKPSQTLSLTCTVSGYSISSDSAWSWIRQFPGKGLEWIGYIQYSGSTNYNPSLKSRVTISRDTSKNQFSLKLSSVTAADTAVYYCARSVNYYGNSFAVGPWGQGTLVTVSS VL: EIVLTQSPATLSLSPGERATLSCRASQGVSDYLAWYQQKPGQAPRLLIKYASQPATGIPARFSGSGSGTDFTLTISSLEPEDFAVYYCQNGHSFPLTFGAGTKLEIK"
10,2,"VH SEQ ID NO 618 / VL SEQ ID NO 478 (antibody, IgG4, V domains shown, humanized 11F2; IgG4 S228P/kappa) VH: QVQLQESGPGLVKPSQTLSLTCTVSGYSISSDSAWSWIRQFPGKGLEWIGYIQYSGSTNYNPSLKSRVTISRDTSKNQFSLKLSSVTAADTAVYYCARSVNYYGNSFAVGPWGQGTLVTVSS VL: EIVLTQSPATLSLSPGERATLSCRASQGVSDYLHWYQQKPGQAPRLLIKYASQPATGIPARFSGSGSGTDFTLTISSLEPEDFAVYYCQQGHSFPLTFGQGTKLEIK"
11,180,"VH SEQ ID NO 618 / VL SEQ ID NO 398 (antibody, IgG4, V domains shown, humanized 11F2; IgG4 S228P/kappa) VH: QVQLQESGPGLVKPSQTLSLTCTVSGYSISSDSAWSWIRQFPGKGLEWIGYIQYSGSTNYNPSLKSRVTISRDTSKNQFSLKLSSVTAADTAVYYCARSVNYYGNSFAVGPWGQGTLVTVSS VL: EIVLTQSPATLSLSPGERATLSCRASQGVSDYLAWYQQKPGEAPRLLIKYTSQPATGIPARFSGSGSGTDFTLTISSLEPEDFAVYYCQNGHSFPLTFGQGTKLEIK"
12,1.3,"VH SEQ ID NO 618 / VL SEQ ID NO 454 (antibody, IgG4, V domains shown, humanized 11F2; IgG4 S228P/kappa) VH: QVQLQESGPGLVKPSQTLSLTCTVSGYSISSDSAWSWIRQFPGKGLEWIGYIQYSGSTNYNPSLKSRVTISRDTSKNQFSLKLSSVTAADTAVYYCARSVNYYGNSFAVGPWGQGTLVTVSS VL: EIVLTQSPATLSLSPGERATLSCRASQGVSDYLHWYQQKPGEAPRLLIKYASQPATGIPARFSGSGSGTDFTLTISSLEPEDFAVYYCQNGHSFPLTFGQGTKLEIK"
13,34,"VH SEQ ID NO 618 / VL SEQ ID NO 438 (antibody, IgG4, V domains shown, humanized 11F2; IgG4 S228P/kappa) VH: QVQLQESGPGLVKPSQTLSLTCTVSGYSISSDSAWSWIRQFPGKGLEWIGYIQYSGSTNYNPSLKSRVTISRDTSKNQFSLKLSSVTAADTAVYYCARSVNYYGNSFAVGPWGQGTLVTVSS VL: EIVLTQSPATLSLSPGERATLSCRASQGVSDYLAWYQQKPGQAPRLLIKYASQPATGIPARFSGSGSGTDFTLTISSLEPEDVAVYYCQNGHSFPLTFGQGTKLEIK"
14,5800,"VH SEQ ID NO 618 / VL SEQ ID NO 422 (antibody, IgG4, V domains shown, humanized 11F2; IgG4 S228P/kappa) VH: QVQLQESGPGLVKPSQTLSLTCTVSGYSISSDSAWSWIRQFPGKGLEWIGYIQYSGSTNYNPSLKSRVTISRDTSKNQFSLKLSSVTAADTAVYYCARSVNYYGNSFAVGPWGQGTLVTVSS VL: EIVLTQSPATLSLSPGERATLSCRASQGVSDYLAWYQQKPGQAPRLLIKYASQPATGIPARFSGSGSGTDFTLTISSLEPEDFAVYYCQQGHSFPLTFGQGTKLEIK"
15,1.3,"VH SEQ ID NO 618 / VL SEQ ID NO 334 (antibody, IgG4, V domains shown, humanized 11F2; IgG4 S228P/kappa) VH: QVQLQESGPGLVKPSQTLSLTCTVSGYSISSDSAWSWIRQFPGKGLEWIGYIQYSGSTNYNPSLKSRVTISRDTSKNQFSLKLSSVTAADTAVYYCARSVNYYGNSFAVGPWGQGTLVTVSS VL: EIVLTQSPATLSLSPGERATLSCRASQGISDYLHWYQQKPGQAPRLLIKYASQPATGIPARFSGSGSGTDFTLTISSLEPEDFAVYYCQNGHSFPLTFGQGTKLEIK"
16,33,"VH SEQ ID NO 618 / VL SEQ ID NO 390 (antibody, IgG4, V domains shown, humanized 11F2; IgG4 S228P/kappa) VH: QVQLQESGPGLVKPSQTLSLTCTVSGYSISSDSAWSWIRQFPGKGLEWIGYIQYSGSTNYNPSLKSRVTISRDTSKNQFSLKLSSVTAADTAVYYCARSVNYYGNSFAVGPWGQGTLVTVSS VL: EIVLTQSPATLSLSPGERATLSCRASQGVSDYLAWYQQKPGEAPRLLIKYASQPATGIPARFSGSGSGTDFTLTISSLEPEDFAVYYCQNGHSFPLTFGQGTKLEIK"
17,1.2,"VH SEQ ID NO 618 / VL SEQ ID NO 342 (antibody, IgG4, V domains shown, humanized 11F2; IgG4 S228P/kappa) VH: QVQLQESGPGLVKPSQTLSLTCTVSGYSISSDSAWSWIRQFPGKGLEWIGYIQYSGSTNYNPSLKSRVTISRDTSKNQFSLKLSSVTAADTAVYYCARSVNYYGNSFAVGPWGQGTLVTVSS VL: EIVLTQSPATLSLSPGERATLSCRASQGISDYLHWYQQKPGQAPRLLIKYTSQPATGIPARFSGSGSGRDFTLTISSLEPEDFAVYYCQNGHSFPLTFGAGTKLELK"
18,24,"VH SEQ ID NO 618 / VL SEQ ID NO 414 (antibody, IgG4, V domains shown, humanized 11F2; IgG4 S228P/kappa) VH: QVQLQESGPGLVKPSQTLSLTCTVSGYSISSDSAWSWIRQFPGKGLEWIGYIQYSGSTNYNPSLKSRVTISRDTSKNQFSLKLSSVTAADTAVYYCARSVNYYGNSFAVGPWGQGTLVTVSS VL: EIVLTQSPATLSLSPGERATLSCRASQGVSDYLAWYQQKPGQAPRLLIKYASQPATGIPARFSGSGSGTDFTLTISSLEPEDFAVYYCQNGHSFPLTFGQGTKLEIK"
19,110,"VH SEQ ID NO 618 / VL SEQ ID NO 430 (antibody, IgG4, V domains shown, humanized 11F2; IgG4 S228P/kappa) VH: QVQLQESGPGLVKPSQTLSLTCTVSGYSISSDSAWSWIRQFPGKGLEWIGYIQYSGSTNYNPSLKSRVTISRDTSKNQFSLKLSSVTAADTAVYYCARSVNYYGNSFAVGPWGQGTLVTVSS VL: EIVLTQSPATLSLSPGERATLSCRASQGVSDYLAWYQQKPGQAPRLLIKYASQPATGIPARFSGSGSGTDFTLTISSLEPEDFGVYYCQNGHSFPLTFGQGTKLEIK"
20,1.2,"VH SEQ ID NO 618 / VL SEQ ID NO 470 (antibody, IgG4, V domains shown, humanized 11F2; IgG4 S228P/kappa) VH: QVQLQESGPGLVKPSQTLSLTCTVSGYSISSDSAWSWIRQFPGKGLEWIGYIQYSGSTNYNPSLKSRVTISRDTSKNQFSLKLSSVTAADTAVYYCARSVNYYGNSFAVGPWGQGTLVTVSS VL: EIVLTQSPATLSLSPGERATLSCRASQGVSDYLHWYQQKPGQAPRLLIKYASQPATGIPARFSGSGSGTDFTLTISSLEPEDFAVYYCQNGHSFPLTFGQGTKLEIK"
